From PMC12618784 come the findings set out here.

Among the targets are ATPsynD, SynO; Prohibitin2; SesB; Troponin-C.
What all share (assay): TurboID biotin proximity labelling with mass spectrometry
What all share (conditions): 3rd instar larval muscle tissue (mef2-Gal4); parent: 1

For the substance “Dmel\Tmem43wt::TurboID (from UniProt Q9VSB9) p.S333L”, the ratio to parent with ATPsynD, SynO came to 0.3; with Prohibitin2, 0.18; with SesB it was 0.29; with Troponin-C, 0.07.
